In data set [1] the test system is +36 GFP-(GGS)4-ALAL-(GGS)4-Cre-His6.
For data set [2], the system named is +36 GFP-(GGS)4-ALAL-(GGS)4-mCherry-His6.
Sequence of +36 GFP-(GGS)4-ALAL-(GGS)4-mCherry-His6 (chain, as listed by the source): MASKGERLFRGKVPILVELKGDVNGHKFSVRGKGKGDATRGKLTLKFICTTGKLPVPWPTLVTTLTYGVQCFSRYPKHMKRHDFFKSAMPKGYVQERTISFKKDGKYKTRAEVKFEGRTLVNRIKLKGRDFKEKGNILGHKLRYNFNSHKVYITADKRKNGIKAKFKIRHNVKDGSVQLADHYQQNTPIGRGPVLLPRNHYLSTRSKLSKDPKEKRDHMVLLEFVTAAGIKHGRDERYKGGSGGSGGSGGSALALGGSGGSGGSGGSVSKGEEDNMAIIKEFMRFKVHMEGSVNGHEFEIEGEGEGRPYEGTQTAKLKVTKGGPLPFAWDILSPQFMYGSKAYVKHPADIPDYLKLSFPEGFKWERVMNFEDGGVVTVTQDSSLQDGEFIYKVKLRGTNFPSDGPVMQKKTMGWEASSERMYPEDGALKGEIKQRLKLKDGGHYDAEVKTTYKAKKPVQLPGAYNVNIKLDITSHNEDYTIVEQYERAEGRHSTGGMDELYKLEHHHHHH

Sequence of +36 GFP-(GGS)4-ALAL-(GGS)4-Cre-His6 (chain, as listed by the source): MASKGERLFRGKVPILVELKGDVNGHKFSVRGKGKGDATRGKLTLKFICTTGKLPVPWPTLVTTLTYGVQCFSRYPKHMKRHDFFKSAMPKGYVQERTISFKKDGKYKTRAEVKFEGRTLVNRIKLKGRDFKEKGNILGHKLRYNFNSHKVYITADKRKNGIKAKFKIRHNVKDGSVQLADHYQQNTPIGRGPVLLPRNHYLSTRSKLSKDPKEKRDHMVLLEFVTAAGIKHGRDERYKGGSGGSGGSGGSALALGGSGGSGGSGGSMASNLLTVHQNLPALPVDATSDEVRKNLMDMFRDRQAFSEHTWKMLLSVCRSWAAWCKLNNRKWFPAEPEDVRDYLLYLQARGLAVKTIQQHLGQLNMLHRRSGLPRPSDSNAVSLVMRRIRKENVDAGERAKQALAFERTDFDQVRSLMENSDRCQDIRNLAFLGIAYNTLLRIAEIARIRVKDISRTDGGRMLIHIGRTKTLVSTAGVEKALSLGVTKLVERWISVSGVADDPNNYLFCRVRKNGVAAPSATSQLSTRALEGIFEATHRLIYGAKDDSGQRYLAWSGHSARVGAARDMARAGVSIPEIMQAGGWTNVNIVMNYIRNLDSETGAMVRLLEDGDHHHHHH

Take cathepsin B from human liver (Sigma): the “cleavage of the fusion protein in vitro (gel)” value was “the +36 GFP-Cre fusion was indeed cleaved into two protein fragments with lengths consistent with separated +36 GFP and Cre” in data set [1]; “Cleavage of +36 GFP-mCherry fusion. ... lane 4: +36 GFP-mCherry fusion after treatment with 500 ng cathepsin B for 45 min at 37 °C” in data set [2].

Source of the values: patent publication US20160280748.
